Data: patent US20250000991A1, “NECTIN-4 ANTIBODIES AND ANTIBODY-DRUG CONJUGATES” (Eli Lilly and Company, priority 2023, published 2025)
Substitutions are numbered along the chain they refer to.

T1: human Nectin-4 (Homo sapiens, UniProt Q96NY8)
T1 construct: His tag; purchased Acro Biosystems NE4-H52H3
T1 sequence (Q96NY8 32-510): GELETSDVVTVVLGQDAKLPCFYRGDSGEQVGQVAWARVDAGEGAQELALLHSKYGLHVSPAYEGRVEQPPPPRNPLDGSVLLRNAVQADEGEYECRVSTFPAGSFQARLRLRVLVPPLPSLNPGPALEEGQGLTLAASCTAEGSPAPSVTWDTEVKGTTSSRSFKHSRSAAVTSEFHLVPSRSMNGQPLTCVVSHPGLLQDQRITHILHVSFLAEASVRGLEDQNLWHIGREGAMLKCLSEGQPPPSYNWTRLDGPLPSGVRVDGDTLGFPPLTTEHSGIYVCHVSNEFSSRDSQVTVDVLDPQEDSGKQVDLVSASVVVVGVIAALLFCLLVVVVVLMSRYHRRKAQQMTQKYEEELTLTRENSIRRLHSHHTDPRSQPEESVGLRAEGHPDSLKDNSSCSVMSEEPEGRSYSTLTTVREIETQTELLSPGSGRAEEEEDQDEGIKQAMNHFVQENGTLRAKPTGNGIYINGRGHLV

B1: Ab3 (conjugate)
heavy: EVQLVESGGGLVKPGGSLRLSCAASGFNLNHYNMNWVRQAPGKGLEWVSSVSSGGGFRYYADSVRGRFTISRDNAKNSLYLQMNSLRAEDTAVYYCARGAVFHDAFDIWGQGTLVTVSSASTKGPSVFPLAPSSKSTSGGTAALGCLVKDYFPEPVTVSWNSGALTSGVHTFPAVLQSSGLYSLSSVVTVPSSSLGTQTYICNVNHKPSNTKVDKRVEPKSCDKTHTCPPCPAPEAAGGPSVFLFPPKPKDTLMISRTPEVTCVVVSVSHEDPEVKFNWYVDGVEVHNAKTKPREEQYNSTYRVVSVLTVLHQDWLNGKEYKCKVSNKALPAPIEKTISKAKGQPREPQVYTLPPSREEMTKNQVSLTCLVKGFYPSDIAVEWESNGQPENNYKTTPPVLDSDGSFFLYSKLTVDKSRWQQGNVFSCSVMHEALHNHYTQKSLSLSPGK
light: DIQLTQSPSFLSASVGDRVTITCRASQDISSYLAWYQQKPGKAPKLLIYVASTLQSGVPSRFSGSGSGTEFTLTISSLQPEDFATYYCQQINSYPFTFGQGTKVEIKRTVAAPSVFIFPPSDEQLKSGTASVVCLLNNFYPREAKVQWKVDNALQSGNSQESVTEQDSKDSTYSLSSTLTLSKADYEKHKVYACEVTHQGLSSPVTKSFNRGEC
B2: Ab5 (conjugate)
heavy: QVQLVQSGAEVKKPGASVKVSCKASGYTFTSYYVHWVRQAPGQGLEWMGIINPSIISTSYAQKFQARVTMTRDTSTSTVYMELSSLRSEDTAVYYCARGLNFDAFDIWGQGTLVTVSSASTKGPSVFPLAPSSKSTSGGTAALGCLVKDYFPEPVTVSWNSGALTSGVHTFPAVLQSSGLYSLSSVVTVPSSSLGTQTYICNVNHKPSNTKVDKRVEPKSCDKTHTCPPCPAPEAAGGPSVFLFPPKPKDTLMISRTPEVTCVVVSVSHEDPEVKFNWYVDGVEVHNAKTKPREEQYNSTYRVVSVLTVLHQDWLNGKEYKCKVSNKALPAPIEKTISKAKGQPREPQVYTLPPSREEMTKNQVSLTCLVKGFYPSDIAVEWESNGQPENNYKTTPPVLDSDGSFFLYSKLTVDKSRWQQGNVFSCSVMHEALHNHYTQKSLSLSPGK
light: B1 light with D28G, V50A, I91L, S93N
B3: Ab4 (conjugate)
heavy: QVQLQESGPGLVKPSETLSLTCTVSGGSISGYYWSWIRQPPGKGLEWIGYIYYSGSTNYNPSLKSRVTISVDTSKNQFSLKLSSVTAADTAVYYCARLGIFFDAFDIWGQGTLVTVSSASTKGPSVFPLAPSSKSTSGGTAALGCLVKDYFPEPVTVSWNSGALTSGVHTFPAVLQSSGLYSLSSVVTVPSSSLGTQTYICNVNHKPSNTKVDKRVEPKSCDKTHTCPPCPAPEAAGGPSVFLFPPKPKDTLMISRTPEVTCVVVSVSHEDPEVKFNWYVDGVEVHNAKTKPREEQYNSTYRVVSVLTVLHQDWLNGKEYKCKVSNKALPAPIEKTISKAKGQPREPQVYTLPPSREEMTKNQVSLTCLVKGFYPSDIAVEWESNGQPENNYKTTPPVLDSDGSFFLYSKLTVDKSRWQQGNVFSCSVMHEALHNHYTQKSLSLSPGK
light: B1 light with D28G, V50A, I91F, F96W
B4: Ab6 (conjugate)
heavy: QVQLVQSGAEVKKPGASVKVSCKASGYTFTGYYMHWVRQAPGQGLEWMGIINPSGGSTTYAQKFQGRVTMTRDTSTSTVYMELSSLRSEDTAVYYCARGRLGTYFDYWGQGTLVTVSSASTKGPSVFPLAPSSKSTSGGTAALGCLVKDYFPEPVTVSWNSGALTSGVHTFPAVLQSSGLYSLSSVVTVPSSSLGTQTYICNVNHKPSNTKVDKRVEPKSCDKTHTCPPCPAPEAAGGPSVFLFPPKPKDTLMISRTPEVTCVVVSVSHEDPEVKFNWYVDGVEVHNAKTKPREEQYNSTYRVVSVLTVLHQDWLNGKEYKCKVSNKALPAPIEKTISKAKGQPREPQVYTLPPSREEMTKNQVSLTCLVKGFYPSDIAVEWESNGQPENNYKTTPPVLDSDGSFFLYSKLTVDKSRWQQGNVFSCSVMHEALHNHYTQKSLSLSPGK
light: SYVLTQPPSVSVAPGQTARITCGGNNIGSKSVHWYQQKPGQAPVLVVYDDSDRPSGIPERFSGSNSGNTATLTISRVEAGDEADYYCQVWDRSSDQVVFGGGTKLTVLGQPKAAPSVTLFPPSSEELQANKATLVCLISDFYPGAVTVAWKADSSPVKAGVETTTPSKQSNNKYAASSYLSLTPEQWKSHRSYSCQVTHEGSTVEKTVAPTECS

Key:
[1] = target: T1, human Nectin-4; experiment: Surface plasmon resonance (Biacore 8K+) binding of nectin-4 ADCs to human Nectin-4; conditions: human Nectin-4, 37° C., ADC Formula XI DAR 8; n=3 mean ± SD, n=2 replicate values
Description: (§1) An anti-human Fc sensor surface was prepared by amine-coupling of goat anti-human IgG Fc (Southern Biotech Cat. No. 2014-01, Birmingham, AL) to a Biacore Series S CM4 (Cytiva Cat. No. BR-100534) sensor surface at 25° C. For immobilization, a running buffer of 10 mM HEPES, 150 mM NaCl, 0.05% Tween-20, pH 7.4 was used. Flow cells 1 & 2 of all 8 channels were activated with a 1:1 (v/v) mixture of 400 mM 1-Ethyl-3-(3-dimethylaminopropyl) carbodiimide hydrochloride (EDC) and […] N-Hydroxysuccinimide (NHS) at a flow rate of 10 uL/min for 7 minutes. Then the anti-human IgG Fc capture reagent was coupled to the sensor surface (diluted to 50 μg/mL in 10 mM Acetate pH 4.5 buffer) by injecting it in all flow cells and channels at a flow rate of 10 uL/min for 7 minutes. Remaining active groups were blocked by injecting 100 mM ethylenediamine (in 200 mM Borate buffer, pH 8.5) in all flow cells and channels at a flow rate of 10 uL/min for 7 minutes. All channels and flow cells were then preconditioned using three consecutive 1-minute injections of 75 mM phosphoric acid at 10 uL/min.
(§2) In each analysis cycle, a different ADC was captured on flow cell 2 of each channel by injecting it at 5 μg/mL and 10 uL/min. After capture, the same analyte was injected on flow cells 1 and 2 in all 8 channels for 2 minutes at 30 uL/n and dissociation was monitored for 10 minutes. After dissociation, all surfaces were regenerated with three 1-minute injections of 5 mM phosphoric acid at 10 uL/min. ADC capture and analyte cycles were repeated to obtain analyte binding of each ADC at concentrations of 0, 2.5, 7.4, 22, 67, 200 and 600 nM nectin-4.
(§3) Sensorgram data were fit globally with the default 1:1 binding model in Biacore Insight Evaluation Software v3.0.12.15655.

[2] = test system: cyno Nectin-4; experiment: Surface plasmon resonance (Biacore 8K+) binding of nectin-4 ADCs to cyno Nectin-4; conditions: cyno Nectin-4, 37° C., ADC Formula XI DAR 8, n=1
Description: as §1, §2, §3

[3] = test system: rat Nectin-4; experiment: Surface plasmon resonance (Biacore 8K+) binding of nectin-4 ADCs to rat Nectin-4; conditions: rat Nectin-4, 37° C., ADC Formula XI DAR 8, n=1
Description: as §1, §2, §3

[4] = test system: T24 mScarlet clone 5 Nectin-4 negative cells; experiment: Bystander killing of T24-mScarlet clone 5 cells co-cultured with T24-human nectin4 clone108 (imaging); format: cell-based; conditions: T24-mScarlet clone5 : T24-human nectin4 clone108 9:1, 5 days, ADC Formula XI DAR 8; read-out: IC50 of bystander effect
Description: T24 cell line was engineered to express mScarlet and clonally selected to test in bystander assay. T24-mScarlet clone5 and T24-human nectin4 clone108 were mixed and seeded at a total of 1000 cells/well/100 ul with a ratio of 9:1 in culture medium (McCoy's 5A+1× GlutaMax+10% Heat Inactivated Fetal Bovine Serum+400 μg/ml G418) in flat clear bottom 96-well plates. T24 mScarlet clone 5 cells were negative for nectin-4 expression. Plates were incubated at 37° C. with 5% CO2 overnight. Next day, ADCs were added at final working concentration from 50 nM, 1:4 serially diluted in culture medium. Plates were covered with Breathe-Easy® sealing membrane, placed in BioSpa and scanned in Cytation5 every day for 5 days.
Images of T24-mScarlet cells were captured and analyzed by Cytation5 with Gen5 Image Prime 3.11. Percentage of T24-mScarlet cell killing was calculated by decreased Integrated Intensity (area×mean intensity), normalized to zero hour and no treatment. Data was graphed and analyzed using GraphPad Prism version 9.5.1. IC50 was determined via log(inhibitor) vs. response-variable slope (four parameters) curve fitting.

Row | Molecule | ka [1] | kd [1] | ka [2] | kd [2] | ka [3] | kd [3] | IC50 [4] | KD ([3]; KD = kd/ka) | KD ([2]; KD = kd/ka)
1 | B1 | (4.24 ± 0.76) × 10^5 1/Ms | (4.37 ± 1.56) × 10^−4 1/s | 432000 M⁻¹ s⁻¹ | 0.000426 s⁻¹ | 171000 M⁻¹ s⁻¹ | 0.000903 s⁻¹ | 0.047 nM |  | 
2 | B2 | (8.78 ± 1.07) × 10^5 1/Ms | (3.46 ± 0.48) × 10^−3 1/s | 1.06e+06 M⁻¹ s⁻¹ | 0.0033 s⁻¹ | 636000 M⁻¹ s⁻¹ | 0.0199 s⁻¹ | 0.0766 nM |  | 
3 | B3 | (3.59 ± 0.80) × 10^5 1/Ms | (7.32 ± 1.19) × 10^−2 1/s | 380000 M⁻¹ s⁻¹ |  |  |  | 0.0798 nM | weak binding | 
4 | B4 | (1.78 ± 0.41) × 10^6 1/Ms | (1.63 ± 0.25) × 10^−1 1/s |  |  | 925000 M⁻¹ s⁻¹ | 0.105 s⁻¹ | 0.0587 nM |  | heterogeneous kinetics*
